How the values were obtained:
Test in all cases: discontinuous malachite green phosphate-release assay, Michaelis-Menten fit
Format in all cases: biochemical, Pasteurella multocida
Conditions in all cases: 200 mM sodium acetate pH 5.5, 1 mM MgCl2, 37 °C, apparent Km
[1] = substrate: NC(=O)c1ccc[n+]([C@@H]2O[C@H](COP(=O)([O-])O)[C@@H](O)[C@H]2O)c1
[2] = substrate: Nc1ncnc2c1ncn2[C@@H]1O[C@H](CO)[C@@H](O)[C@H]1OP(=O)(O)O
[3] = substrate: Nc1ncnc2c1ncn2[C@@H]1O[C@H](CO)[C@@H](OP(=O)(O)O)[C@H]1O
[4] = substrate: Nc1ncnc2c1ncn2[C@@H]1O[C@H](COP(=O)(O)O)[C@@H](O)[C@H]1O
[5] = substrate: O=[N+]([O-])c1ccc(OP(=O)(O)O)cc1

B1: rPmCCAP (Pasteurella multocida) (protein)
chain: SNQQAVEQANQAKLQQQVAMGLIWTQQSGEYAALAHQAFNSAKMAFDHAKAKKGKKKAVVVDLDETMIDNSAYAGWQVQSGQGFSPKTWTKWVDARQSAAIPGAVEFSNYVNANGGTMFFVSNRRDDVEKAGTVDDMKRLGFTGVNDKTLLLKKDKSNKSVRFKQVEDMGYDIVLFVGDNLNDFGDATYKKSNAERRDFVAKNSKAFGKKFIVLPNTQYGDWEGGLDKNYFKGDSQSKLDVRAKAIHAWDGK
Work on B1 yielded a Km [1] of 290 ± 60 µM, a kcat [1] of 4.4 ± 0.3 s⁻¹ and a kcat/Km [1] of 15000 ± 3300 M⁻¹ s⁻¹. For the same protein, the Km [2] was 1400 ± 300 µM, the kcat [2] was 0.13 ± 0.01 s⁻¹ and the kcat/Km [2] was 90 ± 21 M⁻¹ s⁻¹. The Km [3] was 800 ± 200 µM, the kcat [3] was 0.19 ± 0.01 s⁻¹ and the kcat/Km [3] was 240 ± 61 M⁻¹ s⁻¹. It also gave a Km [4] of 80 ± 10 µM, a kcat [4] of 0.18 ± 0.01 s⁻¹ and a kcat/Km [4] of 2300 ± 310 M⁻¹ s⁻¹. It also gave a Km [5] of 500 ± 100 µM, a kcat [5] of 6.2 ± 0.5 s⁻¹ and a kcat/Km [5] of 12000 ± 2700 M⁻¹ s⁻¹.

From article PMC3086075
